# The supplement of paper PMC7877785
# ± gives the uncertainty stated by the source.
# Test: self-splicing fitness, log relative to wild type (ln ratio); higher = more splicing; Tetrahymena group I intron in knt gene, E. coli kanamycin selection, DiMSum; sequences stand for … in CUCUCU…GGAGGGAAAAGUUAUCAGGCAUGCACCUGGUAGCUAGUCUUUAAACCAAUAGAUUGCAUCGGUUUAAAAGGCAAGACCGUCAAAUUGCGGGAAAGGGGUCAACAGCCGUUCAGUACCAAGUCUCAGGGGAAACUUUGAGAUGGCCUUGCAAAGGGUAUGGUAAUAAGCUGACGGACAUGGUCCUAACCACGCAGCCAAGUCCUAAGUCAACAGAUCUUCUGUUGAUAUGGAUGCAGUUCACAGACUAAAUGUCGGUCGGGGAAGAUGUAUUCUUCUCAUAAGAUAUAGUCGGACCUCUCCUUAAUGGGAGCUAGCGGAUGAAGUGAUGCAACACUGGAGCCGCUGGGAACUAAUUUGUAUGCGAAAGUAUAUUGAUUAGUUUUGGAGUACUCGUGGUCG
# Method in brief: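 Pooled colonies went to amplicon sequencing on an Illumina HiSeq 2500 after six replicate transformations. The plates were LB agar with 100 μg/mL carbenicillin, 50 μM IPTG and 0.2% rhamnose, with or without 25 μg/mL kanamycin, incubated overnight at 37°C or 30°C. The E. coli BL21(DE3) library had all eight P1ex-region intron nucleotides randomised, the intron placed in the knt kanamycin-resistance gene on pET-22b(+). DiMSum fitness is the error-weighted combination of replicate fold changes, kanamycin against none, normalised to wild type.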
Sequence,self-splicing fitness (ln) (30 °C),self-splicing fitness (ln) (37 °C)
GCAGAGCAAUAUUACGUGAU,-2.24 ± 0.16,-1.5 ± 0.18
GCCAAGCAAUAUUACGGGGU,-4.5 ± 0.18,-2.55 ± 0.14
CAAUAGCAAUAUUACGUAGG,-0.348 ± 0.092,-0.384 ± 0.14
CUAUAGCAAUAUUACGGUUG,-0.804 ± 0.088,0.0411 ± 0.1
CAGGAGCAAUAUUACGCUGA,-4.15 ± 0.23,-3.13 ± 0.2
CCUCAGCAAUAUUACGUUGU,-4.98 ± 0.23,-2.52 ± 0.13
AUUUAGCAAUAUUACGCUUG,-0.566 ± 0.088,-0.134 ± 0.12
CUUUAGCAAUAUUACGCAGU,-1.8 ± 0.3,-2.34 ± 0.49
GAAAAGCAAUAUUACGGGUG,-2.23 ± 0.079,-1.18 ± 0.1
AAAUAGCAAUAUUACGCAAC,-3.16 ± 0.37,-1.53 ± 0.26
GUUCAGCAAUAUUACGAAGG,-1.55 ± 0.2,-0.421 ± 0.23
CGUUAGCAAUAUUACGCUAC,-1.48 ± 0.24,–
GAGAAGCAAUAUUACGUUGG,-2.35 ± 0.15,-2.66 ± 0.21
CCUUAGCAAUAUUACGUUCA,-3.3 ± 0.47,-2.9 ± 0.47
GAGAAGCAAUAUUACGUCAG,-3.34 ± 0.23,-1.35 ± 0.18
AAACAGCAAUAUUACGCGCC,-1.13 ± 0.1,-0.456 ± 0.12
UAUUAGCAAUAUUACGGUAU,-3.6 ± 0.29,-2.26 ± 0.31
CUCAAGCAAUAUUACGAGAC,-3.27 ± 0.21,-2.35 ± 0.23
ACUAAGCAAUAUUACGACCA,-0.124 ± 0.23,0.571 ± 0.2
GCACAGCAAUAUUACGAGAU,-1.99 ± 0.088,-0.678 ± 0.081

Sequence,self-splicing fitness (ln) (30 °C),self-splicing fitness (ln) (37 °C)
CUGAAGCAAUAUUACGGUCC,-3.78 ± 0.34,-2.38 ± 0.46
GUUCAGCAAUAUUACGGACC,–,-2.8 ± 0.38
CACAAGCAAUAUUACGUUUU,-4.18 ± 0.15,-3.45 ± 0.22
GAUAAGCAAUAUUACGUUAC,-2.69 ± 0.2,-2.09 ± 0.35
UGCGAGCAAUAUUACGGUAG,-3.36 ± 0.24,-3.01 ± 0.32
CUGGAGCAAUAUUACGCCUA,-1.84 ± 0.36,-1.44 ± 0.32
UAUAAGCAAUAUUACGUCGU,-2.37 ± 0.12,-1.69 ± 0.17
AAGUAGCAAUAUUACGUGUA,-1.98 ± 0.13,-1.41 ± 0.14
AGGGAGCAAUAUUACGUUAA,-3.09 ± 0.48,-2.66 ± 0.41
ACGGAGCAAUAUUACGUGGC,-4.63 ± 0.42,–
AGACAGCAAUAUUACGCUAA,-2.17 ± 0.11,-0.0364 ± 0.1
GUACAGCAAUAUUACGCCAA,–,-1.7 ± 0.29
UGCUAGCAAUAUUACGGCAU,-3.65 ± 0.28,-2.37 ± 0.31
AAUCAGCAAUAUUACGAGGC,-3.28 ± 0.25,-2.47 ± 0.23
ACCCAGCAAUAUUACGUAGG,-0.517 ± 0.064,-0.48 ± 0.081
GUAGAGCAAUAUUACGAAAA,–,-0.266 ± 0.44
UAUUAGCAAUAUUACGUAUC,-3.31 ± 0.24,-2.47 ± 0.29
ACGGAGCAAUAUUACGUUUU,–,-3.08 ± 0.2
ACAUAGCAAUAUUACGUAAC,-3.65 ± 0.23,-3.2 ± 0.35
GACUAGCAAUAUUACGCCAU,-2.02 ± 0.12,-1.32 ± 0.14
